According to PMC11215305:

Molecular target: RadD of F. nucleatum subsp. nucleatum ATCC 23726 (Fusobacterium nucleatum subsp. nucleatum ATCC 23726 (endogenous))
Assay: flow cytometry on cells

“human Siglec-7-Ig (from UniProt Q9Y286 19-353) (Fc fusion)” gave a percent reduction of binding with 5 mM arginine of 31%.
